Results as given in patent US20070172423A1, “Composition and method for modulating vasculogenesis for angiogenesis” (priority 1998, published 2007).

Experiments:
human VEGFR-3 = molecular target: T1, human VEGFR-3 (Homo sapiens, UniProt P35916); experiment: Binding to soluble VEGFR-3-Ig fusion protein; details: 35S-labeled protein in conditioned medium from 293 cells, precipitation with Ig-fusion protein
T1 construct: soluble Ig-fusion proteins containing the extracellular domains of human VEGFR-1, VEGFR-2 and VEGFR-3; made in house; host or cells: human 293 EBNA cells, transient expression
T1 sequence (P35916 25-775 limits assumed): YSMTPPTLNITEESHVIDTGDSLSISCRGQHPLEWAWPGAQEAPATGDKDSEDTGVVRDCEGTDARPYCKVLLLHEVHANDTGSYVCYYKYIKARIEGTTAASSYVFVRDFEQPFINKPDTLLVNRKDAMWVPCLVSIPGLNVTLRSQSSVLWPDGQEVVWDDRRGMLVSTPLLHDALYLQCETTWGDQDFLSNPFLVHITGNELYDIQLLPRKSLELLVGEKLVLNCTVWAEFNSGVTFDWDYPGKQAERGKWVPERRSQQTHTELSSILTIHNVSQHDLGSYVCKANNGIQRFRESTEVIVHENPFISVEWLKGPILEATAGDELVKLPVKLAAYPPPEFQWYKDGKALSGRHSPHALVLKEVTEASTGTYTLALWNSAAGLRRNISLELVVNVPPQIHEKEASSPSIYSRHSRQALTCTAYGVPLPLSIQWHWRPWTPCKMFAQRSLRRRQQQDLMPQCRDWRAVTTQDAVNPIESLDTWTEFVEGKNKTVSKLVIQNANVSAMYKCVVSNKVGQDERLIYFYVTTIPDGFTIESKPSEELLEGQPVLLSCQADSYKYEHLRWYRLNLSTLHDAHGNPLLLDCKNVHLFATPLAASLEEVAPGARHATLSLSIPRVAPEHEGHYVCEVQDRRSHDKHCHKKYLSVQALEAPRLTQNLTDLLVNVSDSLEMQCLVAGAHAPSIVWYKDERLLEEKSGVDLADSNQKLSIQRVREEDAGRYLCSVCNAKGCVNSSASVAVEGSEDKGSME
Description: To assess the interactions between full length and truncated PDGF-C and the VEGF receptors, full length and truncated PDGF-C were tested for their capacity to bind to soluble Ig-fusion proteins containing the extracellular domains of human VEGFR-1, VEGFR-2 and VEGFR-3 (Olofsson et al., Proc. Natl. Acad. Sci. USA, 1998 95:11709-11714). The fusion proteins, designated VEGFR-1-Ig, VEGFR-2-Ig and VEGFR-3-Ig, were transiently expressed in human 293 EBNA cells. All Ig fusion proteins were human VEGFRs. Cells were incubated for 24 hours after transfection, washed with Dulbecco's Modified Eagle Medium (DMEM) containing 0.2% bovine serum albumin and starved for 24 hours. The fusion proteins were then precipitated from the clarified conditioned medium using protein A-Sepharose beads (Pharmacia). The beads were combined with 100 microliters of 10× binding buffer (5% bovine serum albumin, 0.2% Tween 20 and 10 µg/ml heparin) and 900 microliter of conditioned medium from 293 cells that had been transfected with mammalian expression plasmids encoding full length or truncated PDGF-C or control vector, then metabolically labeled with ^35S-cysteine and methionine (Promix, Amersham) for 4 to 6 hours. […] Labeled proteins that were bound to the Ig-fusion proteins were analyzed by SDS-PAGE under reducing conditions. Radiolabeled proteins were detected using a phosphorimager analyzer.

PDGFR-α = PDGFR-α activation in cultured hSMC and NIH-3T3 cells (immunoprecipitation, pTyr blot); assay type: cell-based; details: treated cultured hSMC and NIH-3T3 fibroblast cells
Description: RNase protection analysis (RPA) was performed according to the manufacturer's protocol (Ambion) to investigate gene expression at mRNA level. Riboprobes were prepared using RNA polymerase (Promega) and ^32P-UTP (Amersham). Mouse β-actin cDNA (250 bp, Ambion) was used as an internal control. For Western blot assay, subconfluent cells were rinsed with cold PBS supplemented with 5 µg/ml of antiprotease cocktail, lysed in RIPA buffer and analyzed on 10% acrylamide SDS PAGE in reducing condition. Two antibodies to PDGFR-α (rabbit polyclonal antibody, dilution: 1/500, Santa Cruz, sc431; and monoclonal peroxidase-labeled anti-rabbit antibody, dilution: 1/2500, Sigma, A-2074) were used for PDGFR-α protein detection. Membranes were developed using the Supersignal System (Pierce). […] The precipitants were analysed on SDS-PAGE, and immunoblotted using a monoclonal anti-phosphotyrosine antibody (Santa Cruz).
The mitogenic and chemotactic effect of PDGF-CC was then tested on SMCs and perivascular fibroblast cells, and the effect of PDGF-CC was compared to that of VEGF and PDGF-AA in both cultured cells and the aortic ring assay (Blacher et al., Angiogenesis, 2001 4:133-42). […] In the aortic ring assay, we quantified the growth and emigration of perivascular fibroblasts from the intact vessel using computer-assisted image analysis after treatment with VEGF and different PDGFs at different concentrations. […]

B1: PDGF-CC: recombinant human PDGF-CC core domain homodimer, residues 230-345 of full-length PDGF-C (SEQ ID NO:40), produced in baculovirus infected insect cells (protein)
chain: GRKSRVVDLNLLTEEVRLYSCTPRNFSVSIREELKRTDTIFWPGCLLVKRCGGNCACCLHNCNECQCVPSKVTKKYHEVLQLRPKTGVRGLHKSLTDVALEHHEECDCVCRGSTGG
modifications: homodimer; PDGF-C core domain
B1 was tested, and the “interaction with VEGFR-3-Ig” value (human VEGFR-3) was “failed to show any interaction” and the “PDGFR-α activation (pTyr)” value (PDGFR-α) was “highly activated”.
